Source: US20250333512A1 (PLANTVAX, published 2025)

Key:
Experiment in all cases: cell-based or functional assay
[1] = target: chimeric receptor containing a rhesus macaque FcγRIII ectodomain and the CD3ζ intracellular signaling domain (rhesus macaque, UniProt A3RFZ7 21-206)
[2] = target: chimeric receptor containing a rhesus macaque FcγRIIB ectodomain and the CD3ζ intracellular signaling domain (rhesus macaque, UniProt A0A7G8YX88 43-217)
[3] = target: chimeric receptor containing a rhesus macaque FcγRIIA ectodomain and the CD3ζ intracellular signaling domain (rhesus macaque, UniProt A0A7G8YX83 34-216)
[4] = target: chimeric receptor containing a rhesus macaque FcγRI ectodomain and the CD3ζ intracellular signaling domain (rhesus macaque, UniProt A0A7G8YX43 16-293)

Sequence of chimeric receptor containing a rhesus macaque FcγRIII ectodomain and the CD3ζ intracellular signaling domain (A3RFZ7 whole entry, change not shown, the tested form may be a part): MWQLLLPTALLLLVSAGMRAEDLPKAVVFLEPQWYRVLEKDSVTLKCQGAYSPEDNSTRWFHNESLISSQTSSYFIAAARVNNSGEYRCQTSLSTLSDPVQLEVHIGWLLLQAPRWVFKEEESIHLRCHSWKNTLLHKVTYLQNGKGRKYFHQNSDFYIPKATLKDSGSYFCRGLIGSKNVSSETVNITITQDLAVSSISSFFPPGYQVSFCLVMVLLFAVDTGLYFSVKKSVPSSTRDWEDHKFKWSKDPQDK

B1: Nb PGT121 (antibody)
heavy: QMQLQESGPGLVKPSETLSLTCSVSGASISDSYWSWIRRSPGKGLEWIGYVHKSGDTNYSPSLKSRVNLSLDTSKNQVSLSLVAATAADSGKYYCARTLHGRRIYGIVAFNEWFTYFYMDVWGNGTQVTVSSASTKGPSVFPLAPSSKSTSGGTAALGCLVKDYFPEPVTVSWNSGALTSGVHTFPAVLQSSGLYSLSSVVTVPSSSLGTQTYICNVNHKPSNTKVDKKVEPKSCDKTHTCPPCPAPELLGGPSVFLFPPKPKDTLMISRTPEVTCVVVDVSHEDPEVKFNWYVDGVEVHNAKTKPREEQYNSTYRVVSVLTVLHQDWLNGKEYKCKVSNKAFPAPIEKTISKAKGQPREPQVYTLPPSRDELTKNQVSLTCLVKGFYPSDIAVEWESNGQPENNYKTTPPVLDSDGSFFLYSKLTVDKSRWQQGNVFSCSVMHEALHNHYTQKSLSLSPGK
light: SDISVAPGETARISCGEKSLGSRAVQWYQHRAGQAPSLIIYNNQDRPSGIPERFSGSPDSPFGTTATLTITSVEAGDEADYYCHIWDSRVPTKWVFGGGTTLTVLRTVAAPSVFIFPPSDEQLKSGTASVVCLLNNFYPREAKVQWKVDNALQSGNSQESVTEQDSKDSTYSLSSTLTLSKADYEKHKVYACEVTHQGLSSPVTKSFNRGEC
modifications: Plant-type N-glycan at heavy-chain N312 (EU N297); letters unchanged.
Q: What does the source list for B1?
A: EC50 (IL-2 ELISA) [1]: > 50 µg/mL; EC50 (IL-2 ELISA) [2]: > 50 µg/mL; EC50 (IL-2 ELISA) [3]: > 50 µg/mL; EC50 (IL-2 ELISA) [4]: ~0.71 µg/mL

B2: Nb PGT121-LS (antibody)
heavy: QMQLQESGPGLVKPSETLSLTCSVSGASISDSYWSWIRRSPGKGLEWIGYVHKSGDTNYSPSLKSRVNLSLDTSKNQVSLSLVAATAADSGKYYCARTLHGRRIYGIVAFNEWFTYFYMDVWGNGTQVTVSSASTKGPSVFPLAPSSKSTSGGTAALGCLVKDYFPEPVTVSWNSGALTSGVHTFPAVLQSSGLYSLSSVVTVPSSSLGTQTYICNVNHKPSNTKVDKKVEPKSCDKTHTCPPCPAPELLGGPSVFLFPPKPKDTLMISRTPEVTCVVVDVSHEDPEVKFNWYVDGVEVHNAKTKPREEQYNSTYRVVSVLTVLHQDWLNGKEYKCKVSNKAFPAPIEKTISKAKGQPREPQVYTLPPSRDELTKNQVSLTCLVKGFYPSDIAVEWESNGQPENNYKTTPPVLDSDGSFFLYSKLTVDKSRWQQGNVFSCSVLHEALHSHYTQKSLSLSPGK
light: SDISVAPGETARISCGEKSLGSRAVQWYQHRAGQAPSLIIYNNQDRPSGIPERFSGSPDSPFGTTATLTITSVEAGDEADYYCHIWDSRVPTKWVFGGGTTLTVLRTVAAPSVFIFPPSDEQLKSGTASVVCLLNNFYPREAKVQWKVDNALQSGNSQESVTEQDSKDSTYSLSSTLTLSKADYEKHKVYACEVTHQGLSSPVTKSFNRGEC
modifications: Plant-type N-glycan (partly unoccupied) at heavy-chain N312 (EU N297); letters unchanged.
Q: How did the “EC50 (IL-2 ELISA)” value [1] turn out when B2 was run?
A: > 50 µg/mL

Q: What about the “EC50 (IL-2 ELISA)” value [2] of the same binder?
A: > 50 µg/mL

Q: What about the “EC50 (IL-2 ELISA)” value [3] of the same binder?
A: > 50 µg/mL

Q: What about the “EC50 (IL-2 ELISA)” value [4] of the same binder?
A: 1.2 µg/mL
